Assay: soluble fraction after stress (log2 fold change); higher = more stays soluble; pooled small domains, quantitative proteomics
Conditions: stress: 75 degC
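Note: 20 min heating vs room temperature control held 20 min.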

HMQQPIPGEAYLTRRPGSDHFQIAFTIDGHRVRESSGTSDKVAAAALAQKRYEEVWREIKLGEK
soluble fraction (log2): -0.0824

HMQQPVAYSEFVQSVNDRQIREAQIQGERIVATDNNGNRMTVIWPENDTKLLDELVQNGVLTSIQE
soluble fraction (log2): 0.116

HMQQVDWGSVFGDFGTMFKDQLQPTIDRLRRMAQSDTFRQSSLEEQQILYSLIEKLERSGTA
soluble fraction (log2): -1.89

HMQQVIEGLDSDRDFITVPEAIALFAVGRQTLYHYIRSGKIPSVNLGQRLTRLSKKQLGELFPLR
soluble fraction (log2): -1.97

HMQRGRTFSIVLNWKGRLLSTQMFFPQFTRPTKEQVTFEINKVYPGAMVYYYNPIEKDPSQPLV
soluble fraction (log2): -2.26

HMQRLSRREIEVLHWIAEGKSDWQIGQILSISAKTVNYHTENLKRKFGVATRMQAVVSAIKQGAFVPGE
soluble fraction (log2): -4.11

HMQRVSDKVAAQLRVLVQEQQLKPGDRLPAERALAVQLGVSRTALREAIAQLASQGLLTARVGGGTYVAEP
soluble fraction (log2): -1.08

HMQRYVVDENLKLDKKDINHIINVMRLNVNDQIKLINNGTIYDAIITKIEKNNVLYEIIKKEESK
soluble fraction (log2): -0.661

HMQSANQLIKLSRKRKGLTQQELADQAGVSLRTVQRIEKGTEEISGFSLKQISQILEIPLEQLIM
soluble fraction (log2): -0.652

HMQSLDGPSRAAIVLMAIGPDVAGELIKSFSPAEAQKVSSLLATVRSLDREVMIEVLDSFKNITEH
soluble fraction (log2): -0.339

HMQSLPFSFAKRHGVLLKSINHLHGEAVYRIGANPLSLSEVQRYAGVPLKLSSITVEKFDRLLQETYEHD
soluble fraction (log2): -1.17

HMQSLSDQVFFYLKERIINNEMVPGSIISIEKLTSEFGISNTPVREAIVRLAGLDLVTIHRNKNITVS
soluble fraction (log2): -2.19

HMQSMSADDWSEKARVLMSAGIIVMGQEAKEKILNLKSLVPLIEAASASNVSMIDSRTFDELLMIIP
soluble fraction (log2): -2.46

HMQSREISYSEFVTAVEAGDVRNVTLDGEQVRFRRADGSDYVTIRPEDAEVTKLLMANDIPVRAEP
soluble fraction (log2): 0.116

HMQSRRTPASLVERVRQLNGQYQDKEIAELLNREGIKTAHGNEFNAKRIEMIRRHNGISKHSAQ
soluble fraction (log2): -0.075

HMQSSTAISFNQFQKSWLSNNIKSFQLGEDKMTVRGSLKNGTQYETIVPSERLFQFIGQHPKDGQVQEMY
soluble fraction (log2): 0.0453

HMQSTEQVSVTVTIPPGGELRIDSDTFRVLLNGENVLDKQSGDWLMLSRDLLYLDIESAIGNGLSGNLIYT
soluble fraction (log2): 0.486

HMQSVEELLDAIGDERLLHILLEADRKTLQIVVLKMMGYAPKEIGSHIGMPEQTVYTKLRRLREKIKKI
soluble fraction (log2): -1.65

HMQSYHVGDKVTIKNSASHWATGQSIYNGVKGHTYKIIQTNGHKLLLDQVISWINDGDVYKAGS
soluble fraction (log2): -0.497

HMQSYSTIIGVIELRLSGIGYRTTKARYGIGNSTVTLIMNRFKETGFTLDDLKTMEPTKVEALFYPP
soluble fraction (log2): -1.36

HMQSYSYYDFQKALQNKTVESVIIEPDKTVPTGTLQIQLKGDTKEELNVSDVTEVEELLQSYDVDYKLRSV
soluble fraction (log2): 0.0732

HMQTASVRFADGQLEVKQKGLQRVSVYSLNGMTVANKAVQGQDYVTISLPRAAYIVKITTQNGSFTKVI
soluble fraction (log2): -2.18

HMQTGRREALEAQLRETGGEAMLARLREIDPEAAARLHPADEKRVIRALEVYEETGKTITQHNLETKAVPP
soluble fraction (log2): 0.309

HMQTKEVDYGTFMSMIDEKNIGTVEIGDSQIVFTDKDNKNLYETGVMNDPDLAQRLHDAGATFSS
soluble fraction (log2): 0.128

HMQTLQTTSLRVSENQLFILDQQALPQEKRWLAADNVALLVDHIHTLRVRGAPLIGLSASLLLALLAGRLT
soluble fraction (log2): 0.0717

HMQTMNKTNISNFEKYLNSGDVSEVIVVRNKSSVRVTLTPEALRSSEHQAVVGKNILGQENIKGPHYQFEV
soluble fraction (log2): -0.0414

HMQTPPGRYRHYKGGLYEVIATARHSETLEPMTVYRALYGEQGLWVRPAAMFAEDITLEGVRQPRFARI
soluble fraction (log2): -2.39

HMQTRIDISDAVLQWVVRKTQFAALPPKAAAHLTKWVRGEKKPTFNQLEEVSKATGIPLGYFFLQQPPHE
soluble fraction (log2): -2.19

Source: the domain aggregation screens of Martell et al. (2025)
